Test results taken from US10919943B2, “Mutant proteins enabling agrochemical control of plant gene expression” (The Regents of the University of California, priority 2016, dated 2021).
Numbering of substitutions follows the chain as printed. Numbers in names are those of the source.

B1: N151H: PYR1 mutant (protein, UniProt O49686 1-191, looked up, variant N151H)
Abscisic acid receptor PYR1: MPSELTPEERSELKNSIAEFHTYQLDPGSCSSLHAQRIHAPPELVWSIVRRFDKPQTYKHFIKSCSVEQNFEMRVGCTRDVIVISGLPANTSTERLDILDDERRVTGFSIIGGEHRLTNYKSVTTVHRFEKENRIWTVVLESYVVDMPEGHSEDDTRMFADTVVKLNLQKLATVAEAMARNSGDGSGSQVT
B2: D155W: PYR1 mutant (protein, UniProt O49686 1-191, looked up, variant D155W)
Abscisic acid receptor PYR1: B1 Abscisic acid receptor PYR1 with H151N, D155W
B3: T156E: PYR1 mutant (protein, UniProt O49686 1-191, looked up, variant T156E)
Abscisic acid receptor PYR1: B1 Abscisic acid receptor PYR1 with H151N, T156E
B4: D155M: PYR1 mutant (protein, UniProt O49686 1-191, looked up, variant D155M)
Abscisic acid receptor PYR1: B1 Abscisic acid receptor PYR1 with H151N, D155M
B5: D155P: PYR1 mutant (protein, UniProt O49686 1-191, looked up, variant D155P)
Abscisic acid receptor PYR1: B1 Abscisic acid receptor PYR1 with H151N, D155P
B6: D155I: PYR1 mutant (protein, UniProt O49686 1-191, looked up, variant D155I)
Abscisic acid receptor PYR1: B1 Abscisic acid receptor PYR1 with H151N, D155I
B7: T156Q: PYR1 mutant (protein, UniProt O49686 1-191, looked up, variant T156Q)
Abscisic acid receptor PYR1: B1 Abscisic acid receptor PYR1 with H151N, T156Q
B8: T156W: PYR1 mutant (protein, UniProt O49686 1-191, looked up, variant T156W)
Abscisic acid receptor PYR1: B1 Abscisic acid receptor PYR1 with H151N, T156W
B9: T156F: PYR1 mutant (protein, UniProt O49686 1-191, looked up, variant T156F)
Abscisic acid receptor PYR1: B1 Abscisic acid receptor PYR1 with H151N, T156F
B10: D155F: PYR1 mutant (protein, UniProt O49686 1-191, looked up, variant D155F)
Abscisic acid receptor PYR1: B1 Abscisic acid receptor PYR1 with H151N, D155F
B11: D155L: PYR1 mutant (protein, UniProt O49686 1-191, looked up, variant D155L)
Abscisic acid receptor PYR1: B1 Abscisic acid receptor PYR1 with H151N, D155L
B12: T156M: PYR1 mutant (protein, UniProt O49686 1-191, looked up, variant T156M)
Abscisic acid receptor PYR1: B1 Abscisic acid receptor PYR1 with H151N, T156M
B13: T156K: PYR1 mutant (protein, UniProt O49686 1-191, looked up, variant T156K)
Abscisic acid receptor PYR1: B1 Abscisic acid receptor PYR1 with H151N, T156K
B14: T156G: PYR1 mutant (protein, UniProt O49686 1-191, looked up, variant T156G)
Abscisic acid receptor PYR1: B1 Abscisic acid receptor PYR1 with H151N, T156G
B15: D155C: PYR1 mutant (protein, UniProt O49686 1-191, looked up, variant D155C)
Abscisic acid receptor PYR1: B1 Abscisic acid receptor PYR1 with H151N, D155C
B16: D155R: PYR1 mutant (protein, UniProt O49686 1-191, looked up, variant D155R)
Abscisic acid receptor PYR1: B1 Abscisic acid receptor PYR1 with H151N, D155R
B17: D155G: PYR1 mutant (protein, UniProt O49686 1-191, looked up, variant D155G)
Abscisic acid receptor PYR1: B1 Abscisic acid receptor PYR1 with H151N, D155G
B18: T156N: PYR1 mutant (protein, UniProt O49686 1-191, looked up, variant T156N)
Abscisic acid receptor PYR1: B1 Abscisic acid receptor PYR1 with H151N, T156N
B19: F159P: PYR1 mutant (protein, UniProt O49686 1-191, looked up, variant F159P)
Abscisic acid receptor PYR1: B1 Abscisic acid receptor PYR1 with H151N, F159P
B20: M158P: PYR1 mutant (protein, UniProt O49686 1-191, looked up, variant M158P)
Abscisic acid receptor PYR1: B1 Abscisic acid receptor PYR1 with H151N, M158P
B21: D155Y: PYR1 mutant (protein, UniProt O49686 1-191, looked up, variant D155Y)
Abscisic acid receptor PYR1: B1 Abscisic acid receptor PYR1 with H151N, D155Y
B22: N151K: PYR1 mutant (protein, UniProt O49686 1-191, looked up, variant N151K)
Abscisic acid receptor PYR1: B1 Abscisic acid receptor PYR1 with H151K
B23: T156P: PYR1 mutant (protein, listed as Arabidopsis thaliana)
chain: B1 Abscisic acid receptor PYR1 with H151N, T156P
B24: T156L: PYR1 mutant (protein, UniProt O49686 1-191, looked up, variant T156L)
Abscisic acid receptor PYR1: B1 Abscisic acid receptor PYR1 with H151N, T156L
B25: N151I: PYR1 mutant (protein, UniProt O49686 1-191, looked up, variant N151I)
Abscisic acid receptor PYR1: B1 Abscisic acid receptor PYR1 with H151I
B26: T156Y: PYR1 mutant (protein, UniProt O49686 1-191, looked up, variant T156Y)
Abscisic acid receptor PYR1: B1 Abscisic acid receptor PYR1 with H151N, T156Y
B27: T156D: PYR1 mutant (protein, UniProt O49686 1-191, looked up, variant T156D)
Abscisic acid receptor PYR1: B1 Abscisic acid receptor PYR1 with H151N, T156D
B28: T156I: PYR1 mutant (protein, UniProt O49686 1-191, looked up, variant T156I)
Abscisic acid receptor PYR1: B1 Abscisic acid receptor PYR1 with H151N, T156I
B29: D155V: PYR1 mutant (protein, UniProt O49686 1-191, looked up, variant D155V)
Abscisic acid receptor PYR1: B1 Abscisic acid receptor PYR1 with H151N, D155V
B30: T156R: PYR1 mutant (protein, UniProt O49686 1-191, looked up, variant T156R)
Abscisic acid receptor PYR1: B1 Abscisic acid receptor PYR1 with H151N, T156R
B31: D155K: PYR1 mutant (protein, UniProt O49686 1-191, looked up, variant D155K)
Abscisic acid receptor PYR1: B1 Abscisic acid receptor PYR1 with H151N, D155K
B32: T156H: PYR1 mutant (protein, UniProt O49686 1-191, looked up, variant T156H)
Abscisic acid receptor PYR1: B1 Abscisic acid receptor PYR1 with H151N, T156H
B33: F159N: PYR1 mutant (protein, UniProt O49686 1-191, looked up, variant F159N)
Abscisic acid receptor PYR1: B1 Abscisic acid receptor PYR1 with H151N, F159N

System: HAB1
Test: Yeast two hybrid of pBD-PYR1 site saturation mutants with pACT-HAB1 on 10 μM ABA, β-galactosidase staining
Assay type: cell-based, Arabidopsis
Design: key: x: Mutations in PYR1 that disrupt ABA-induced binding to PYR1 to HAB1
Settings: S. cerevisiae Y190, 10 μM ABA; dead = lack of visible staining in comparison to wild type control
How it was run: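 S. cerevisiae Y190 co-expressing GAL4-DNA-binding-domain–PYR1 mutants and GAL4-activation-domain–HAB1 were spotted on SD (-Leu, -Trp) agar with 10 μM (+)-ABA for 2 days at 30° C. Colonies were chloroform-lysed and stained for β-galactosidase. Mutants lacking visible staining relative to wild type were scored as non-binding.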

| Molecule | Mutations in PYR1 that disrupt ABA-induced binding to PYR1 to HAB1 |
| --- | --- |
| B1 | x |
| B2 | x |
| B3 | x |
| B4 | x |
| B5 | x |
| B6 | x |
| B7 | x |
| B8 | x |
| B9 | x |
| B10 | x |
| B11 | x |
| B12 | x |
| B13 | x |
| B14 | x |
| B15 | x |
| B16 | x |
| B17 | x |

| Molecule | Mutations in PYR1 that disrupt ABA-induced binding to PYR1 to HAB1 |
| --- | --- |
| B18 | x |
| B19 | x |
| B20 | x |
| B21 | x |
| B22 | x |
| B23 | x |
| B24 | x |
| B25 | x |
| B26 | x |
| B27 | x |
| B28 | x |
| B29 | x |
| B30 | x |
| B31 | x |
| B32 | x |
| B33 | x |
